In one assay the target is T1, human CD122 His tagged (human, UniProt P14784 27-240).
T1 construct: also called hCD122
T1 sequence: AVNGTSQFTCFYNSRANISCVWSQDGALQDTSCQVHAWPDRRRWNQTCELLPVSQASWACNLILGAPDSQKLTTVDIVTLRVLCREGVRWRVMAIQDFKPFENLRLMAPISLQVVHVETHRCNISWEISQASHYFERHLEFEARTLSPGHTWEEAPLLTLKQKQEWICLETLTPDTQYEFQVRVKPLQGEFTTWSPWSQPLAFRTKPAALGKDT
Kind of assay: BIACORE SPR, Fab on human CD122. As to the method: (§1) A mouse anti-human antibody (CH1 specific) was immobilized on a CMS Sensor Chip to a level of 2000 RU in acetate buffer at pH 4.5 using amine coupling following the Wizard instructions for two channels. One channel was used for background signal correction. The standard running buffer HBS-EP pH 7.4 was used. Regeneration was performed with a single injection of 10 μl of 10 mM Glycine at pH 1.5 at 20 μl/minute. IgG samples were injected for 2 minutes at 50 nM at 30 μl/min followed by and off-rate of 60 seconds. The monomeric antigen (human CD122 His tagged or cynomolgus and/or rhesus monkey CD122 His tag) was injected in two fold serial dilutions from 100 nM down to 3.1 nM, for 2 minutes at 30 μl/min followed by an off-rate of 300 seconds. The obtained sensorgrams were analyzed using the BIACORE® 3000 evaluation (BIAevaluation) software. The KD was calculated by simultaneous fitting of the association and dissociation phases to a 1:1 Langmuir binding model.
A general note: SPR reads the build-up and loss of mass on a sensor chip optically.

Assay [1] concerns the target T2, cynomolgus and/or rhesus monkey CD122 His tag (rhesus monkey, UniProt Q38J85 27-240 (cynomolgus entry)).
T2 construct: also called rhesus CD122; rhCD122
T2 sequence: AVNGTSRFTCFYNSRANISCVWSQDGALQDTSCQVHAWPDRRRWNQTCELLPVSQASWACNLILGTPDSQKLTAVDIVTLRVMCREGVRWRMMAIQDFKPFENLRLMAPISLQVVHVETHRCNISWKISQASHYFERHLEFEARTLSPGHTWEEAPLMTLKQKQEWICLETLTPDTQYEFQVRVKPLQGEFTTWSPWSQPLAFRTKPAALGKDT
Kind of assay: BIACORE SPR, Fab on rhesus CD122. The procedure: as §1

As usually defined, the Kd is a measure of binding affinity in units of concentration.

B1: FAB03 (Fab, V domains shown)
VH: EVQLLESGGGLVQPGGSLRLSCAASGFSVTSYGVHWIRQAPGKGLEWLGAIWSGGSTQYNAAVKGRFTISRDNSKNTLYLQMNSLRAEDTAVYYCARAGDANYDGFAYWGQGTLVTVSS
VL: DIQMTQSPSSLSASVGDRVTITCQASSSVSFMYWYQQRPGKAPRLLIYDTSNLASGVPSRFSGSGSGTSYTFTISSLQPEDIATYYCQQWDTYPLTFGQGTKVEIK
notes: F11VH-1 + F11VK-123; Human monovalent Fab
Regarding B1, the values for the Kd (in the assay with human CD122 His tagged; in assay [1]) were 38.6 nM and 20.6 nM, respectively.

B2: FAB09 (Fab, V domains shown)
VH: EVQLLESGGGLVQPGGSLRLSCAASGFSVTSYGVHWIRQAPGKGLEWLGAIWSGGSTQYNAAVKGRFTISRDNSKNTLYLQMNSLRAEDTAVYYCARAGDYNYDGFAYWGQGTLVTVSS
VL: DIQMTQSPSSLSASVGDRVTITCQASSSVSFMYWYQQRPGKAPRLLIYDTSNLASGVPSRFSGSGSGTSYTFTISSLQPEDIATYYCQQWDTYPLTFGQGTKVEIK
notes: F11VH-13 + F11VK-123; Human monovalent Fab
On to B2, for which the Kd is 72.5 nM with human CD122 His tagged and 36.5 nM in assay [1].

B3: FAB12 (Fab, V domains shown)
VH: EVQLLESGGGLVQPGGSLRLSCAASGFTVTSYAVHWVRQAPGKGLEWLGVIWSGGSTDYNAAFISRLTISKDNSKNTVYFQMNSLRAEDTAVYYCARAGDYNYDGFAYWGQGTLVTVSS
VL: DIQMTQSPSSLSASVGDRVTITCQASSSVSFMYWYQQRPGKAPRLLIYDTSNLASGVPSRFSGSGSGTSYTFTISSLQPEDIATYYCQQWDTYPLTFGQGTKVEIK
notes: F11VH-23 + F11VK-123; Human monovalent Fab
B3: the Kd with human CD122 His tagged came out at 21.8 nM; in assay [1] it was 19.5 nM.

For the origin of these results see patent US20230322944A1 (published 2023).
